In paper doi:10.64898/2025.12.08.693079:

What was measured:
[1] = target: purified 20S core peptidase (CP) (S. cerevisiae) (UniProt P21242); assay: NADH-coupled ATPase displacement assay
[2] = target: purified 20S core peptidase (CP) (S. cerevisiae) (UniProt P21242); assay: Suc-LLVY-AMC peptidase activity titration

Chain of UniProt P21242 (P21242 whole entry, looked up): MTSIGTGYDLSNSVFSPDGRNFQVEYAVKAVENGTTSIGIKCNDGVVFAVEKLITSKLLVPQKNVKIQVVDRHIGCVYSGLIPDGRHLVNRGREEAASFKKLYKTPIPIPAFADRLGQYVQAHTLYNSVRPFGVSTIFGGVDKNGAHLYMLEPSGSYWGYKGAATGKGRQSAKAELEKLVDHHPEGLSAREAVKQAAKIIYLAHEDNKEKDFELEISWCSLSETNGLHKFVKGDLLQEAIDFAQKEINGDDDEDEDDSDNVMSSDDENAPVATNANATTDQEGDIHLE

## 3x-Flag-tagged Blm10 (from UniProt P43583 1-2143) (natural protein)
[1]
  IC50: 3 µM
[2]
  Kd: 0.065 µM
